# Measurements reported in publication PMC6245143, “Small-animal SPECT/CT imaging of cancer xenografts and pulmonary fibrosis using a ^99mTc-labeled integrin αvβ6-targeting cyclic peptide with improved in vivo stability” (Biophysics Reports, 2018).
# Where two headings read alike, the source gives them in different places. Where a SMILES comes first, the peptide text is derived from it. Bridges are numbered along the chain shown (N, C = ends). Where no end group is shown, it is not given here. The star is where a group is joined. HYNIC = NNc1ccc(C(=O)*)cn1
# Legend:
# [1] = Biodistribution in BxPC-3 tumor-bearing nude mice; conditions: female, BALB/c nude, in vivo, iv, total radioactivity; for tissue uptake at 1 h: 1 h after injection
# Description: (§1) All animal experiments were performed in accordance with the guidelines of Peking University Animal Care and Use Committee. To establish the BxPC-3 subcutaneous tumor model, BxPC-3 cells (1 × 10^7 in 100 μl of PBS) were inoculated subcutaneously into the right front flanks of female BALB/c nude mice. The animals were used for in vivo studies when the tumor size reached 200–300 mm^3 (3–4 weeks after inoculation). For the pulmonary fibrosis mouse model, BLM (1.5 units/kg, 50 μl in PBS) or PBS (50 μl; as a vehicle control) was administered once into the C57/BL6 mice by intratracheal injection. On day 21 (based on pilot studies), the mice with well-established pulmonary fibrosis were used for SPECT/CT imaging.
# Biodistribution studies were performed using female BALB/c nude mice bearing BxPC-3 xenografts. Mice received an injection via the tail vein of 370 kBq (10 μCi) of ^99mTc–HYNIC–cHK to evaluate the distribution of the radiotracer. The blocking experiments were also performed by coinjection of ^99mTc–HYNIC–cHK with a saturating dose of the HK peptide (500 μg per mouse). At 0.5, 1, and 2 h after injection, the animals were sacrificed, and the tumors and the organs/tissues of interest were dissected and wet-weighed, and the radioactivity in the tissue was measured using a γ-counter. The results are presented as percentages of injected dose per gram of tissue (%ID/g). Values are expressed as mean ± SD (n = 4 per group).
# [2] = mouse; cited from earlier work
# Source text: Due to the critical role of integrin αvβ6 in tumorigenesis and fibrogenesis, it has emerged as an appealing target for diagnostic imaging, prognosis evaluation, and therapeutic responses monitoring (Agarwal [2014]; Cantor et al. [2015]; Saini et al. [2015]; Yang et al. [2015]). Therefore, noninvasive and quantitative imaging of integrin αvβ6 expression by molecular imaging techniques would be of great potential for better management of these diseases. Previous studies have focused on the development of positron emission tomography (PET) and single-photon emission computed tomography (SPECT) ra ...
# [3] = biological target: T1, integrin αvβ6-positive BxPC-3 cells (Homo sapiens, UniProt P06756+P18564); test: Binding of ^99mTc–HYNIC–cHK to BxPC-3 cells, without or with cold peptide blocking; format: cell-based; conditions: 4 °C, 4 h
# T1 construct: host or cells: BxPC-3 human pancreatic cancer cells
# Description: The binding specificity of ^99mTc–HYNIC–cHK to integrin αvβ6 was evaluated in integrin αvβ6-positive BxPC-3 cells.
# In vitro integrin αvβ6 binding specificity of ^99mTc–HYNIC–cHK was tested using the integrin αvβ6-positive BxPC-3 cells. Briefly, cells were seeded into 12-well plates and incubated overnight at 37 °C to allow adherence. After brief washing with PBS, tumor cells were incubated with 3.7 kBq ^99mTc–HYNIC–cHK with or without an excess dose of cold cHK or HK peptide at 4 °C for 4 h. Tumor cells were then washed with chilled PBS and harvested by trypsinization with 0.05% trypsin. The cell suspensions were collected and measured in a γ-counter (Wallac 1470-002, Perkin-Elmer, Finland). The cell uptake was expressed as the percent added dose (%AD). Experiments were performed twice with triplicate samples.
# [4] = 37 °C, 0, 0.5, 1, 2 and 4 h, radio-HPLC
# Description: The in vitro solution stability of ^99mTc–HYNIC–cHK in fetal bovine serum (FBS) or L-cysteine was monitored by radio-HPLC.
# ^99mTc–HYNIC–cHK was incubated in FBS or L-cysteine (1.0 mg/mL) for 0, 0.5, 1, 2, and 4 h at 37 °C to test the in vitro solution stability. After passing through a 0.22-μm Millipore filter, the samples were analyzed by radio-HPLC.
# [5] = for degree of metabolism in blood: mouse blood, 1 mCi i.v.
# Description: We performed the metabolism studies of ^99mTc–HYNIC–cHK using normal BALB/c mice. We analyzed the samples from both blood and urine to determine whether the radiotracer retains its chemical integrity at 0.5 h and 1 h postinjection.
# The metabolic stability of ^99mTc–HYNIC–cHK was evaluated in female BALB/c normal mice. Each mouse was administered with the radiotracer at a dose of 1 mCi in 100 μl saline via intravenous injection. At 0.5 h and 1 h postinjection, the blood and urine samples were collected. The samples were centrifuged at 8000 r/min for 15 min. The supernatant was collected, filtered through a 0.22-μm Millipore filter, and then analyzed by radio-HPLC.
# BxPC-3 tumors = test: Small-animal SPECT/CT imaging of BxPC-3 cancer xenografts; format: in vivo, BALB/c nude mice; conditions: BxPC-3 tumor-bearing mice, 37 MBq i.v., blocking dose of cold HK peptide, P < 0.001
# Description: as §1
# (§2) Small-animal SPECT/CT scans of subcutaneous BxPC-3 tumor and pulmonary fibrosis mouse models were performed using a SPECT/CT system (NanoScan; Mediso, Budapest, Hungary). Each BxPC-3-bearing mouse was injected via tail vein with 37 MBq (1 mCi) of ^99mTc–HYNIC–cHK. At 0.5 h and 1 h after injection, the mice were anesthetized by inhalation of 2% isoflurane and imaged using the Nano-SPECT/CT camera, The SPECT and CT fusion images were obtained using the automatic fusion software (InterView Fusion; Mediso Medical Imaging Systems, Budapest, Hungary).
# [6] = test system: bleomycin-induced fibrotic lungs; test: SPECT/CT imaging of bleomycin-induced pulmonary fibrosis; format: in vivo; conditions: C57/BL6 mice, 0.5 h after injection
# Description: as §1, §2
# Each BLM- or PBS-treated mouse was administered with 37 MBq of ^99mTc–HYNIC–cHK via tail vein. […]
# [7] = biological target: T2, integrin αvβ6 on BxPC-3 cells (Homo sapiens, UniProt P06756+P18564); test: Displacement cell-binding assay with ^125I–HYK as radioligand
# T2 construct: Experiments were performed on high integrin αvβ6-expressing BxPC-3 cells; host or cells: BxPC-3 human pancreatic cancer cells
# Description: In vitro integrin αvβ6 binding affinities of cHK and HK were compared via displacement cell-binding assays (Dong et al. [2015]) using ^125I–HYK as the radioligand. ^125I–HYK was prepared by labeling HYK with Na^125I using the Iodogen method as previously reported (Liu et al. [2010]). Experiments were performed on high integrin αvβ6-expressing BxPC-3 cells. The best-fit 50% inhibitory concentration (IC50) values were calculated by fitting the data with nonlinear regression using Graph-Pad Prism (GraphPad Software, Inc.).
# T1 sequence (P06756 31-889 limits assumed): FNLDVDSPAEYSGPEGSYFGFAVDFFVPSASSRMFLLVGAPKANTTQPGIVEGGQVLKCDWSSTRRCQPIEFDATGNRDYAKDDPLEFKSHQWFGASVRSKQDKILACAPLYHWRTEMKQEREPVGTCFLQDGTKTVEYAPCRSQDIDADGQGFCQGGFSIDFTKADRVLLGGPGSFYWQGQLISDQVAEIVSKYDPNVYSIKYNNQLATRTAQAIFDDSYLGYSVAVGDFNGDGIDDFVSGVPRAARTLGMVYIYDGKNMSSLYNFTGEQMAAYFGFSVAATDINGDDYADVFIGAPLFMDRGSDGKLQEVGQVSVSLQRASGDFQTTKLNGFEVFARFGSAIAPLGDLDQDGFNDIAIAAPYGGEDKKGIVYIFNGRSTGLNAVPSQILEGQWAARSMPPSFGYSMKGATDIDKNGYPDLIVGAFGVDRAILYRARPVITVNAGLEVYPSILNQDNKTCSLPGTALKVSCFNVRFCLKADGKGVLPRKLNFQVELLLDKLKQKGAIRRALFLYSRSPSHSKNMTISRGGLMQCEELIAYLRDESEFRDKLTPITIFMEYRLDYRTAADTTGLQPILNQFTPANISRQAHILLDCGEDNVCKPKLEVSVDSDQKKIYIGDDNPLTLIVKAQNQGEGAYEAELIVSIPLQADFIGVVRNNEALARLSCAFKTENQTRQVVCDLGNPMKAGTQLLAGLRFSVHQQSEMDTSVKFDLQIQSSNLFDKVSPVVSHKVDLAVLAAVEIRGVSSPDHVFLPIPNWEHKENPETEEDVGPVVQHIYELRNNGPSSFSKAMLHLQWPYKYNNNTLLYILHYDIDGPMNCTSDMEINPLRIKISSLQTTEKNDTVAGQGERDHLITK
# T1 sequence (P06756 891-1048 partner limits assumed): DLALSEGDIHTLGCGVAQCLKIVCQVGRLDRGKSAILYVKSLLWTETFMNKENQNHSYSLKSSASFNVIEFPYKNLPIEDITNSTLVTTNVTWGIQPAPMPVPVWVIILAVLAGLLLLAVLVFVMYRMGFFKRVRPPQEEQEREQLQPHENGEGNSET
# T1 sequence (P18564 22-788): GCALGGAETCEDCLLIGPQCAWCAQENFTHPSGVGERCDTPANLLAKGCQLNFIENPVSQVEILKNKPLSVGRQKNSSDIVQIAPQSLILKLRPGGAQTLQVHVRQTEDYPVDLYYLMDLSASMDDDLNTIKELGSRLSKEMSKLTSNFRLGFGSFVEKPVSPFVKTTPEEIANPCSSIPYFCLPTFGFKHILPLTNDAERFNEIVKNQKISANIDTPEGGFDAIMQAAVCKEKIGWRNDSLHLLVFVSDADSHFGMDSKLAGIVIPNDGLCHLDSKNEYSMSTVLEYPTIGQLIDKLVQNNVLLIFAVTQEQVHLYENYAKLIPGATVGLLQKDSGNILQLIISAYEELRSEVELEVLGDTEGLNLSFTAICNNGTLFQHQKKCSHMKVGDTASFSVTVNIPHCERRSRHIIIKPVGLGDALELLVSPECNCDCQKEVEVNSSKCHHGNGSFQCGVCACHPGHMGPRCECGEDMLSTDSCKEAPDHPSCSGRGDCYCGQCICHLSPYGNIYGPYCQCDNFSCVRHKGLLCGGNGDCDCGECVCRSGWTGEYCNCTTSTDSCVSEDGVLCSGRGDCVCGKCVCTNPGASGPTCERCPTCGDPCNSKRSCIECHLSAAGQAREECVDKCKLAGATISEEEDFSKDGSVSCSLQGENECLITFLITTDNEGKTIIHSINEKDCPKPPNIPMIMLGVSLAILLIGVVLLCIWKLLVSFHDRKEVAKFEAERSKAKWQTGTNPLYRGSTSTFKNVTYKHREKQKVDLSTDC
# T2 sequence (P06756 31-889 limits assumed): as the sequence (P06756 31-889 limits assumed) above
# T2 sequence (P06756 891-1048 partner limits assumed): as the sequence (P06756 891-1048 partner limits assumed) above
# T2 sequence (P18564 22-788): as the sequence (P18564 22-788) above
molecule,measurement,setting,value
"CC(C)C[C@H](NC(=O)[C@H](CC(=O)O)NC(=O)CNC(=O)[C@@H](N)CCCNC(=N)N)C(=O)N[C@@H](C)C(=O)N[C@H](C(=O)N[C@@H](CC(C)C)C(=O)N[C@@H](CCCNC(=N)N)C(=O)N[C@@H](CCC(N)=O)C(=O)N[C@@H](CC(C)C)C(=O)N[C@@H](C)C(=O)N[C@@H](CCC(N)=O)C(=O)N[C@@H](CCC(=O)O)C(=O)N[C@@H](CC(=O)O)C(=O)NCC(=O)N[C@H](C(=O)N[C@H](C(=O)NCC(=O)N[C@H](C(=O)N[C@@H](CCCNC(=N)N)C(=O)N[C@@H](CCCCNC(=O)c1ccc(NN)nc1)C(=O)O)C(C)C)C(C)C)C(C)C)[C@@H](C)O [^99mTc–HYNIC–HK, metal not drawn, reference compound] (H-RGDLATLRQLAQEDGVVGVRK(HYNIC)-OH; N-terminus and C-terminus assumed)",tissue to tissue ratio at 0.5 h,"[1]; mouse, 370 kBq",1.82 ± 0.27
same,tissue uptake at 0.5 h,"[1]; mouse, 370 kBq",0.58 ± 0.09 %ID/g
same,time to complete degradation in vivo after injection,[2],≤ 30 min
"CC(C)C[C@@H]1NC(=O)[C@H](CC(=O)O)NC(=O)CNC(=O)[C@H](CCCNC(=N)N)NC(=O)[C@@H](N)CSSC[C@@H](C(=O)O)NC(=O)[C@H](CCCCNC(=O)c2ccc(NN)nc2)NC(=O)[C@H](CC(C)C)NC(=O)[C@H]([C@@H](C)O)NC(=O)[C@H](C)NC1=O [^99mTc–HYNIC–cHK, metal not drawn] (H-CRGDLATLK(HYNIC)C-OH; disulfide 1-10)",binding of ^99mTc–HYNIC–cHK to BxPC-3 cells (cell uptake),[3]; with excess cold HK peptide (300 μg) blocking,0.06 ± 0.007 %AD
same,binding of ^99mTc–HYNIC–cHK to BxPC-3 cells (cell uptake),[3]; with excess cold cHK peptide (300 μg) blocking,0.03 ± 0.005 %AD
same,binding of ^99mTc–HYNIC–cHK to BxPC-3 cells (cell uptake),"[3]; without blocking, 3.7 kBq tracer, γ-counter, twice with triplicate samples",0.79 ± 0.01 %AD
same,time remaining stable in the presence of L-cysteine,[4]; L-cysteine 1.0 mg/mL,more than 4 h
same,time remaining stable in FBS,[4]; fetal bovine serum,more than 4 h
same,in vivo stability compared to ^99mTc–HYNIC–HK,[5]; comparison with linear peptide-based radiotracer (Liu et al. [2014b]),much more stable in vivo
same,degree of metabolism in blood,"[5]; 0.5 h postinjection, radio-HPLC",9.94%
same,degree of metabolism in blood,"[5]; 1 h postinjection, radio-HPLC",30.09%
same,chemical integrity in urine,"[5]; mouse urine, 0.5 h and 1 h postinjection, radio-HPLC",retained its integrity
same,tissue uptake at 1 h,"[1]; BxPC-3 tumors, blocking with HK peptide 500 μg per mouse, n = 4, read-out: tumor uptake with coinjection of cold HK peptide",0.24 ± 0.04 %ID/g
same,tissue to tissue ratio at 0.5 h,"[1]; mouse, 370 kBq, BxPC-3 tumor-bearing nude mice, 0.5 h after injection, n = 4, read-out: tumor-to-muscle (T/M) ratio",2.99 ± 0.87
same,tissue uptake at 1 h,"[1]; mouse, 370 kBq, BxPC-3 tumors, mean ± SD, n = 4, read-out: tumor uptake",0.43 ± 0.09 %ID/g
same,tissue uptake at 2 h,"[1]; mouse, 370 kBq, BxPC-3 tumors, 2 h after injection, mean ± SD, n = 4",0.33 ± 0.16 %ID/g
same,tissue uptake at 0.5 h,"[1]; mouse, BxPC-3 tumors, 0.5 h after injection, 370 kBq i.v., mean ± SD, n = 4, read-out: tumor uptake",0.63 ± 0.18 %ID/g
same,tumor uptake in the HK blocking group (SPECT),BxPC-3 tumors,almost completely inhibited
same,lung uptake in PBS-treated mice (SPECT/CT),"[6]; PBS control, 37 MBq i.v.",no significant uptake
same,lung uptake in BLM-treated mice (SPECT/CT),"[6]; bleomycin 1.5 units/kg intratracheal, day 21, 37 MBq i.v.",evident accumulation
CC(C)C[C@@H]1NC(=O)[C@H](CC(=O)O)NC(=O)CNC(=O)[C@H](CCCNC(=N)N)NC(=O)[C@@H](N)CSSC[C@@H](C(=O)O)NC(=O)[C@H](CCCCN)NC(=O)[C@H](CC(C)C)NC(=O)[C@H]([C@@H](C)O)NC(=O)[C@H](C)NC1=O [cHK] (H-CRGDLATLKC-OH; disulfide 1-10),IC50,[7],20.3 ± 1.17 nM
"RGDLATLRQLAQEDGVVGVRK [HK, reference compound]",IC50,"[7]; displacement cell-binding assay, BxPC-3 cells, nonlinear regression fit, read-out: IC50, inhibition of ^125I–HYK binding to integrin αvβ6 on BxPC-3 cells",3.55 ± 0.09 nM
